Entries after “also recorded” stand apart in the source; their conditions may differ.
Legend:
[1] = human afamin binding alpha- and gamma-tocopherol, radioligand assay; read-out: binding-dissociation constant; cited from earlier work
[2] = afamin plasma concentration by ELISA during afamin substitution; format: in vivo, mouse; conditions: infertile male chimeric mice, intraperitoneal minipump, continuous release for 28 days, plasma at weekly intervals
Description: In order to analyse the afamin concentrations in the partial knock-out mice, an ELISA kit for quantifying afamin in mouse plasma was developed. For that purpose, a polyclonal antibody against mouse afamin was obtained by immunising rabbits with purified recombinant murine afamin. Recombinant expression of murine afamin was achieved by stable transfection of CHO cells with mouse afamin cDNA followed by purification from serum-free culture supernatants. The obtained polyclonal anti-mouse afamin antibody was purified by affinity chromatography on a sepharose column to which recombinant afamin was covalently bound. This affinity-purified antibody was used to coat ELISA-plates and, after conjugation with horse-radish peroxidase, also for detection using an appropriate substrate reaction. Purified recombinant afamin (quantified by amino acid compositional analysis) served as standard. With this ELISA, an afamin plasma concentration in the range of 6-10 mg/l was measured in wild-type mice which is roughly only 10% of respective plasma levels in humans (3).
In order to confirm the role of afamin for fertility, infertile male chimeric animals were substituted with recombinantly produced murine afamin via minipump, which was implanted intraperitonially and released afamin continuously into the organism for 28 days (which corresponds to the time required for spermiogenesis in mice). […]

[3] = system: infertile male chimeric animals; assay: afamin substitution via intraperitoneal minipump in infertile male chimeric afamin knock-out mice: fertility and testes histology; format: in vivo, mouse
Description: Chimeric mice from ES cells carrying the disrupted afamin allele were generated by microinjection of 10-15 ES cells into 3.5-day-old embryos of the C57B1/J mouse strain. Chimeric animals were mated to C57B1/J or 129/Sv partners, respectively, to establish the afamin mutant allele on a C57B1/J×129/Sv hybrid and on a 129/Sv inbred genetic background. Loss of afamin mRNA and protein was checked by Northern and Western blot analysis.
In order to confirm the role of afamin for fertility, infertile male chimeric animals were substituted with recombinantly produced murine afamin via minipump, which was implanted intraperitonially and released afamin continuously into the organism for 28 days (which corresponds to the time required for spermiogenesis in mice). Control mice received physiological saline solution instead of afamin. At weekly time intervals, plasma was obtained from substituted mice. […] Offspring were, however, exclusively wild-type not carrying the recombinant allele.

Molecule	Kd [1]	plasma concentrations of afamin [2]	histological examination of testes, spermiogenesis ([3]; after afamin substitution and sacrifice)	fertility (mating with female wild-type mice) ([3]; intraperitoneal minipump, 28 days substitution)
afamin: 75-kDa human serum glycoprotein with vitamin E-binding properties, member of the albumin gene family (protein, UniProt P43652 22-599, looked up) Afamin: LPTQPRDIENFNSTQKFIEDNIEYITIIAFAQYVQEATFEEMEKLVKDMVEYKDRCMADKTLPECSKLPNNVLQEKICAMEGLPQKHNFSHCCSKVDAQRRLCFFYNKKSDVGFLPPFPTLDPEEKCQAYESNRESLLNHFLYEVARRNPFVFAPTLLTVAVHFEEVAKSCCEEQNKVNCLQTRAIPVTQYLKAFSSYQKHVCGALLKFGTKVVHFIYIAILSQKFPKIEFKELISLVEDVSSNYDGCCEGDVVQCIRDTSKVMNHICSKQDSISSKIKECCEKKIPERGQCIINSNKDDRPKDLSLREGKFTDSENVCQERDADPDTFFAKFTFEYSRRHPDLSIPELLRIVQIYKDLLRNCCNTENPPGCYRYAEDKFNETTEKSLKMVQQECKHFQNLGKDGLKYHYLIRLTKIAPQLSTEELVSLGEKMVTAFTTCCTLSEEFACVDNLADLVFGELCGVNENRTINPAVDHCCKTNFAFRRPCFESLKADKTYVPPPFSQDLFTFHADMCQSQNEELQRKTDRFLVNLVKLKHELTDEELQSLFTNFANVVDKCCKAESPEVCFNEESPKIGN	18 µM			
recombinantly produced murine afamin: murine afamin expressed by stable transfection of CHO cells with mouse afamin cDNA, purified from serum-free culture supernatants (protein, UniProt O89020 22-608, looked up) Afamin: LPTKPQDVDHFNATQKFIDENTTYLAIIAFSQYVQEASFDEVETLVKVMLDYRDRCWADNTLPECSKTANDAIQDMLCDMEGLPQKHNFSHCCGKAGFPRRLCFFYNKKANVGFLPPFPTLDPEEKCQAYKNNSESFLHLYMYEVARRNPFVFAPVLLAVAAWFEEAATTCCEQQQKATCFQAKAAPITQYLKASSSYQRNVCGALIKFGPKVLNSINVAVFSKKFPKIGFKDLTTLLEDVSSMYEGCCEGDVVHCIRSQSQVVNHICSKQDSISSKIKVCCEKKTLEREACIINANKDDRPEGLSLREAKFTESENVCQERDSDPDKFFAEFIYEYSRRHPDLSTPELLRITKVYMDFLEDCCSRENPAGCYRHVEDKFNETTQRSLAMVQQECKQFQELGKDTLQRHFLVKFTKAAPQLPMEELVSLSKEMVAALTTCCTLSDEFACVDNLADLVLGELCGVNTNRTINPAVDHCCKTDFAFRRHCFEHLKADTTYELPSVSALVSALHTDWCQPRKEDLQNKKHRFLVNLVKWMPGITDEEWLCLFTKFTAAREECSEVQEPESCFSPESSKTGDESQATEKQR		immediately rose to physiological levels and stayed constant during the infusion period	restoration of normal testes histology, spermiogenesis; also recorded: completely normalised testes tissue and spermiogenesis	restoration of normal testes histology, spermiogenesis and fertility; also recorded: resulted in several pregnancies and births

— patent US20110179509A1, “Use of Afamin for Treating Fertility Disorders” (VITATEQ BIOTECHNOLOGY GMBH, priority 2008, published 2011)
